From patent US10688197B2, “Non-alcoholic fatty liver regulator 14-3-3 protein” (Korea University Research and Business Foundation, priority 2015, dated 2020)

Target: T1, PPARγ2 deletion mutant (1-310) (Homo sapiens, UniProt P37231)
T1 construct: Flag-PPARγ2 (1-310) DNA (4 μg); expressed in transfected cells; host or cells: HEK-293T
T1 sequence (P37231 1-310): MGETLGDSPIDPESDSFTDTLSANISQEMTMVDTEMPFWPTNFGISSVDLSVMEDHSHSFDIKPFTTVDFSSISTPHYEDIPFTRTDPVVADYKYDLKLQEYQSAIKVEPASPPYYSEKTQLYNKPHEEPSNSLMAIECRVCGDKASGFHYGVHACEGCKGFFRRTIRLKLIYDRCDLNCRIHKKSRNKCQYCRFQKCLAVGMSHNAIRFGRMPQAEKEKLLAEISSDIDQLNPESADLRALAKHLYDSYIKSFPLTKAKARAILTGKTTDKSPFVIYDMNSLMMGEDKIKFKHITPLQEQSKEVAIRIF
Test: GST-pull down assay with PPARγ2 deletion mutant (1-310)
Assay type: binding
Conditions: FIG. 3B/3C
Protocol: HEK-293T cells were seeded in a 100 mm plate at a density of 2×10^6 cells per each well, and then transfected with Flag-PPARγ2 (1-505) DNA (4 μg), Flag-PPARγ2 (1-310) DNA (4 μg), Flag-PPARγ2 (139-505) DNA (4 μg), and mGST-14-3-3β (4 μg) or mGST-14-3-3γ (4 μg) using an E-fection plus reagent (Lugen). For Flag-PPARγ2 (1-310) DNA and Flag-PPARγ2 (139-505) DNA, DNA fragments amplified through polymerase chain reaction (PCR) were cloned into a pCMV-3Tag-1 vector using restriction enzymes XhoI and ApaI. A ratio of DNA to the E-fection plus reagent was 1:2, and this method was performed according to a manufacturer's manual. The corresponding cells were washed with ice-cold PBS and lysed using 500 μl/well of a lysis buffer (150 mM NaCl, 1 mM EDTA, 1% Nonidet P-40, 5% glycerol, 25 mM tris-HCl, pH 7.5, protease inhibitor added), and the lysed cells were centrifuged at 10,000×g and 4° C. for 10 minutes to extract proteins. Thereafter, 1,000 μg of the proteins was reacted with 20 μl of glutathione Sepharose 4B beads (GE Healthcare, Buckinghamshire, UK) for 6 hours, and then washing of the beads with 1 ml of ice-cold PBS was repeated 5 times, and the beads were boiled at 100° C. for 10 minutes, followed by 10% SDS-PAGE gel separation and western blotting. A ratio of GST antibodies (Santa Cruz) to Flag antibodies (Santa Cruz) was 1:3000. […]

binding to PPARγ2 deletion mutant (1-310)	Substance
bound	14-3-3β: 14-3-3 isoform protein overexpressed by DNA transfection; increases the transcriptional activity of PPARγ2 by binding to PPARγ2
bound	14-3-3γ: 14-3-3 isoform protein overexpressed by DNA transfection; decreases the transcriptional activity of PPARγ2; proposed active ingredient
